Laboratory results published in US20100330094A1 (NOVIMMUNE S A, published 2010).
Where a chain is given by its changes, count along the chain named. Blank lines part the entries; values can stand above or below the binder they belong to.

Legend:
[1] = biological target: T1, recombinant human IP-10 (hIP-10) (human, UniProt P02778 22-98); experiment: SPR (Biacore 2000)
T1 construct: mature; Commercial recombinant chemokine (Peprotech); also called rhIP-10; CXCL10
T1 sequence (looked up): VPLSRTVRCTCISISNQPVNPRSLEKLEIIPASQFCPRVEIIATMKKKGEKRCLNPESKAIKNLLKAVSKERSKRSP
Procedure: (§1) 200RU (response unit) of a goat anti-human polyclonal IgG (ahIgG; Biacore AB, Uppsala, Sweden) were immobilized by EDC/NHS chemistry on a C1 Biacore chip. […] The surface was regenerated after each cycle by injection of 10 mM glycine pH=1.5 at 30 μL/min, for 30s followed by 1 min. of stabilization time in HBS-EP buffer.
(§2) Binding was measured by passing either hIP-10 (Peprotech, Rocky Hill N.J.) or a NusA-hIP-10 fusion protein at the following concentrations: 34.7 nM, 11.6 nM, 3.85 nM, 1.28 nM, 0.428 nM, 0.142 nM and 0 nM. All solutions were diluted in HBS-EP buffer (Biacore AB, Uppsala, Sweden). Injection was performed at 50 μl/min for 3 min. followed by 12 min. of dissociation time and the temperature was set at 25° C. […] Very similar values were obtained using rhIP-10 or the NusA-hIP-10 fusion, but better response signals were obtained with the fusion protein due to its larger size that induces a better response on the Biacore.

[2] = biological target: T1, recombinant human IP-10 (hIP-10); experiment: cell-based or functional assay
[3] = biological target: T2, native human IP-10 (hIP-10) (human, UniProt P02778 22-98); experiment: cell-based or functional assay
T2 sequence (looked up): T1 sequence (looked up)

[4] = biological target: T1, recombinant human IP-10 (hIP-10); experiment: SPR (Biacore 2000): IgG1 captured on anti-human IgG, IP-10 in solution, 25 C, 1:1 Langmuir fit
Procedure: as §1, §2

[5] = biological target: T3, NusA-hIP-10 fusion protein (human, UniProt P02778 22-98); experiment: capture ELISA: NI-0801 coated, concentration range of NusA fusion protein, revealed with anti-NusA antibody
T3 construct: mature; not shown: NusA fusion partner encoded by expression plasmid pET43 (Novagen); vector-encoded linker with Factor X protease cleavage site at the C-terminus of NusA; AviTag biotinylation site (Avidity) at the C-terminus of the chemokine
T3 sequence (looked up): T1 sequence (looked up)
Text: (§3) Briefly, IP-10 cloned from cDNA isolated from mouse, rat, rabbit and cynomolgus as well as a panel of human chemokines was expressed and purified as described in Example 1.

[6] = biological target: T4, NusA-cynomolgus IP-10 fusion protein (cynomolgus, UniProt A0A2K5WKN6 22-98); experiment: as above
T4 construct: mature; not shown: NusA fusion partner encoded by expression plasmid pET43 (Novagen); vector-encoded linker with Factor X protease cleavage site
T4 sequence: T1 sequence (looked up) with V1I, A32P, R38H
Text: as §3

[7] = biological target: T5, NusA-mouse IP-10 fusion protein (mouse, UniProt P17515 22-98); experiment: as above
T5 construct: mature; not shown: NusA fusion partner encoded by expression plasmid pET43 (Novagen); vector-encoded linker with Factor X protease cleavage site
T5 sequence (looked up): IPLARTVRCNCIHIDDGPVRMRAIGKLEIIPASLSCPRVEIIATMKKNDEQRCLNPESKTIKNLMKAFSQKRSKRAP
Text: as §3

[8] = biological target: T6, NusA-rat IP-10 fusion protein (rat, UniProt P48973 22-98); experiment: as above
T6 construct: mature; not shown: NusA fusion partner encoded by expression plasmid pET43 (Novagen); vector-encoded linker with Factor X protease cleavage site
T6 sequence (looked up): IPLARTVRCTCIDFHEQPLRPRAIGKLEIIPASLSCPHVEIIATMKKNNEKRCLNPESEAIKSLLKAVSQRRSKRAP
Text: as §3

[9] = biological target: T7, hIP-10 immobilized on glycosaminoglycan (FITC-labeled heparin) (human, UniProt P02778 22-98); experiment: capture assay: IgG captured on coated anti-human Fc, FITC-heparin pre-incubated with hIP-10 added, revealed with HRP-coupled anti-FITC Fab
T7 construct: mature; also called hIP-10 on GAG; hIP-10 immobilized on GAG
T7 sequence (looked up): T1 sequence (looked up)
Procedure: As with many chemokines, hIP-10 is able to oligomerize and bind to glycosaminoglycans (GAG) expressed at surface of cells such as endothelial cells. In order to make sure that the antibodies were able to bind to hIP-10 in this context, they were tested in the following assay. Maxisorb 96 well plates were coated with anti-human Fc (Jackson, West Grove, Pa.) as capturing reagent for the human IgG to be tested. FITC-labeled heparin (Sigma, St. Louis, Mo.) was used as a prototypic GAG and was incubated with hIP-10 before addition to the captured anti-hIP10 antibodies. […] As shown in FIG. 4 some antibodies were able to bind hIP-10 when bound to GAG whereas others were unable to do so probably because their epitope on hIP-10 was no longer accessible within the oligomeric structure.

B1: NI-0801, IgG1 format (antibody, V domains shown)
VH: QVQLVESGGGVVQPGRSLRLSCAASGFTFSNSGIHWVRQAPGKGLEWVAVISYDGSNKYYADSVKGRFTISRDNSKNTLYLQMNSLRAEDTAVYYCARLRDNAEYTDYWGQGTLVTVSS
VL: NFMLTQPHSVSESPGKTVTISCTGSGGSIASNYVQWYQQRPGSSPTTVIYEDNQRPSGVPDRFSGSIDSSSNSASLTISGLKTEDEADYYCQSYDPLPVWVFGGGTKLTVLG
notes: Claims 7 and 21 swap the heavy and light chain numbers
fold improvement of affinity over CC21R3P1_F1 [1]: 90 fold
Calcium flux IC50 (nM); 10 nM rhIP-10 [2]: 6.3 nM
Chemotaxis IC50 (nM); 0.2 nM rhIP-10 [2]: 0.24 nM
Chemotaxis IC50 (nM); native hIP-10 at 0.6 nM [3]: 0.58 nM
Kd [4]: 0.109 nM
EC50 (read off the curve) [5]: ~3 nM
EC50 (read off the curve) [6]: ~1 nM
binding result [7]: no binding (tested: about 2e-7 M)
binding result [8]: no binding (tested: about 2e-7 M)

B2: CF1H1R3P3_G11, IgG1 format (antibody, V domains shown)
VH: B1 VH with Y59F, R98K, A103G, T106L
VL: NFMLTQPHSVSESPGKTVTISCTGSGGSIDRNYVQWYQQRPGSSPTTVIYEDNQRPSGVPDRFSGSIDSSSNSASLTISGLKTEDEADYYCQSYDPLPVWVFGGGTKLTVL
Calcium flux IC50 (nM); 10 nM rhIP-10 [2]: 7.9 nM
Chemotaxis IC50 (nM); 0.2 nM rhIP-10 [2]: 0.2 nM
Chemotaxis IC50 (nM); native hIP-10 at 0.6 nM [3]: 1.9 nM

B3: CF1H1R3P4_B5, IgG1 format (antibody, V domains shown)
VH: B1 VH with Y59F, R98K, A103G, T106L
VL: B2 VL with D95V, P96E, L97T, V99E
Calcium flux IC50 (nM); 10 nM rhIP-10 [2]: 4.7 nM
Chemotaxis IC50 (nM); 0.2 nM rhIP-10 [2]: 0.42 nM
Chemotaxis IC50 (nM); native hIP-10 at 0.6 nM [3]: 1.2 nM

B5: CF1N1R3P4_C7, IgG1 format (antibody, V domains shown)
VH: B1 VH with Y59F, R98K
VL: B2 VL
Calcium flux IC50 (nM); 10 nM rhIP-10 [2]: 4.1 nM
Chemotaxis IC50 (nM); 0.2 nM rhIP-10 [2]: 0.19 nM
Chemotaxis IC50 (nM); native hIP-10 at 0.6 nM [3]: 0.64 nM

B6: CB2R2P4_C3, IgG1 format (antibody, V domains shown)
VH: QVTLRESGPALVKPTQTLTLTCTFSGFSLTTSGMSVIWIRQPPGKALEWLARIDSDDEKHYNTSLKTRLAISKDTSKNQVVLTMTNMDPVDTGTYYCARLRAGSGPYVFDSWGQGTTVTVSS
VL: QSVLTQPPSASGTPGQRVTISCSGSSSNIGSNTVNWYQRLPGAAPQLLIYNNDQRPSGIPDRFSGSKSGTSGSLVISGLQSEDEADYYCASWDDSLNGRVFGGGTKLTVL
Calcium flux IC50 (nM); 10 nM rhIP-10 [2]: > 200 nM
Chemotaxis IC50 (nM); 1 nM rhIP-10 [2]: 33 nM

B7: CB21R3P6_G7, IgG1 format (antibody, V domains shown)
VH: QVQLVQSGAEVKKPGSSVTVSCKASGGTFSSFSITWLRQAPGQGLEWMGEITPMFGIANYAQKFQGRVTISADESTSTAYMELSGLTSEDTAMYYCARDGRFDVSDLLTDKPKVTINYNGMDVWGQGTLVTVSS
VL: B6 VL
Calcium flux IC50 (nM); 10 nM rhIP-10 [2]: 6.2 nM
Chemotaxis IC50 (nM); 1 nM rhIP-10 [2]: 8.8 nM
Chemotaxis IC50 (nM); native hIP-10 at 0.6 nM [3]: 7.8 nM
binding result [9]: no binding

B11: CC21R3P4_F4, IgG1 format (antibody, V domains shown)
VH: QVQLVESGGGVAHSGKSLRLSCAASGFTFSNYGMHWVRQAPGKGLEWLAVISYDGSNRYYADSVKGRFTISRDNSNNTLNLQMSSLRAEDTALYYCAKDAGGPLDYWGRGTLVTVSS
VL: SYVLTQPPSVSVAPGQMARITCGGNNIGDKSVQWYQQRPGQAPLLVVYDDSDRPSGIPERFSGSYSRNTATLTISRVEAGDEADYYCQVWDSSSDHPEVVFGGGTKLTVL
Calcium flux IC50 (nM); 10 nM rhIP-10 [2]: > 200 nM
Chemotaxis IC50 (nM); 1 nM rhIP-10 [2]: 157 nM

The next lines start with the values.

Calcium flux IC50 (nM); 10 nM rhIP-10 [2]: 5.9 nM
Chemotaxis IC50 (nM); 0.2 nM rhIP-10 [2]: 0.69 nM
Chemotaxis IC50 (nM); native hIP-10 at 0.6 nM [3]: 1.7 nM
B4: CF1A11R3P3_F3, IgG1 format (antibody, V domains shown)
VH: B1 VH with Y59F, R98K, A103G, T106L
VL: B2 VL with S44A, T46I, K82R, E84D, P96S, L97I, P98N, V99L, L108V

Calcium flux IC50 (nM); 10 nM rhIP-10 [2]: 9.8 nM
Chemotaxis IC50 (nM); 1 nM rhIP-10 [2]: 3 nM
Chemotaxis IC50 (nM); native hIP-10 at 0.6 nM [3]: 11 nM
Kd [4]: 9.2 nM
B8: CC21R3P1_F1, IgG1 format (antibody, V domains shown)
VH: QVQLVESGGGVVQPGRSHTLSCAASGFAFKNSGIHWVRQAPGKGLEWVAVISYDGSNKFYADSVKGRFTISRDNSQNTVYLQMTDLRPDDTAVYYCARDGSESEYLDYWGKGTLVTVSS
VL: B2 VL with S44A, T46I, K82R, E84D, P96S, L97I, P98N, V99L, L108V

Calcium flux IC50 (nM); 10 nM rhIP-10 [2]: > 200 nM
Chemotaxis IC50 (nM); 1 nM rhIP-10 [2]: 56 nM
B9: CC21R3P1_E7, IgG1 format (antibody, V domains shown)
VH: QLVESGGGVVQPGRSLRLSCAASGFTFSTYGMHWVRQAPGKGLEWVAVISYDGGTKYYADSVKGRFTISRDNSMKTLYLQMNSLRTEDTAVYYCAKDLGDLPPGLDYWGQGTMVTVSS
VL: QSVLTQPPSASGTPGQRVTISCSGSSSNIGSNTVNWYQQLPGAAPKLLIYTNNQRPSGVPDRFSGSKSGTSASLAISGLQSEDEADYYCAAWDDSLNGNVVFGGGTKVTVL

Calcium flux IC50 (nM); 10 nM rhIP-10 [2]: 9.8 nM
Chemotaxis IC50 (nM); 1 nM rhIP-10 [2]: 3.2 nM
Chemotaxis IC50 (nM); native hIP-10 at 0.6 nM [3]: 6.2 nM
binding result [9]: no binding
B10: CC21R3P1_A2, IgG1 format (antibody, V domains shown)
VH: QLVESGGGLIQPGGSLRLSCAASGFSVSDTYMNWVRQAPGKGLEWVSSIYSDDSTYYADSVKGRFTISRDNSKNTLFLQINSLRAEDTAVYYCARDKEYVTSTGGAYYYFYYMDVWGQGTLVTVSS
VL: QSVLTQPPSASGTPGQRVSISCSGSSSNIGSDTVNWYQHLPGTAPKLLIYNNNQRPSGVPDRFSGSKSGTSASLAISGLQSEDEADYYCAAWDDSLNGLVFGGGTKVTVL
